{"source": "patent US20050031645", "about": "“Vaccine compositions” (Advanced Microbial Solutions Corporation, published 2005)", "target": "T1, DtxR (Corynebacterium diphtheriae, UniProt H2I233 SEQ:1-226)", "T1 sequence": "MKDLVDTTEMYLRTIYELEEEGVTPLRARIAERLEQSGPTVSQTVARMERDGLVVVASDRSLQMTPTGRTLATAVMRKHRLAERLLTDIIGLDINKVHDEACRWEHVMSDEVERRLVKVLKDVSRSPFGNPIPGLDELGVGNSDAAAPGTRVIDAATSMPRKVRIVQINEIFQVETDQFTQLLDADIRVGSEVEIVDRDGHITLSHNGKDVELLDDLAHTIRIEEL", "assay": "EMSA; competed by unlabeled tox DNA, not by nonspecific DNA; 10 mM Tris-OAc pH 7.4, 50 mM KCl, 1 mM EDTA, calf thymus DNA", "conditions": "chain copies: 2 (inferred); label: 32P end"}
{"binder": "toxO (tox operator) 100 bp fragment (dsDNA) DNA 1: ATAATTAGGATAGCTTTACCTAATTAT DNA 2: ATAATTAGGTAAAGCTATCCTAATTAT", "values": [{"measurement": "binding result", "value": "binds"}]}
